Where “and” joins values, the source holds several entries; their conditions need not be identical. Equal entries are not always repeated. Where two headings read alike, the source gives them in different places. Square brackets hold non-standard residues; d marks the D form. Ends that are not written are not given here. pS = N[C@@H](COP(=O)(O)O)C(=O)O
B2: dimeric pseudo wild‐type 14‐3‐3ζ (14‐3‐3ζ C25A/C189A) (natural protein)
chain: SVDMDKNELVQKAKLAEQAERYDDMAAAMKSVTEQGAELSNEERNLLSVAYKNVVGARRSSWRVVSSIEQKTEGAEKKQQMAREYREKIETELRDICNDVLSLLEKFLIPNASQAESKVFYLKMKGDYYRYLAEVAAGDDKKGIVDQSQQAYQEAFEISKKEMQPTHPIRLGLALNFSVFYYEILNSPEKAASLAKTAFDEAIAELDTLSEESYKDSTLIMQLLRDNLTLWTSDTQGDEAEAGEGGEN
notes: additional residues at the N-terminus; 14-3-3ζ, residues 1-245, UniProt P63104; C25A and C189A count on P63104; The results speak of '230 residues examined' in the crystals, the methods of residues 1-245 plus SVD; also called d14‐3‐3ζ; dimeric 14‐3‐3ζ

Legend:
[1] = target: MAP2c phosphorylated selectively by PKA at Ser435 (rat) (UniProt P15146); assay: ITC; 14-3-3ζ (d: 2.9-3 mM; m: 1.5 mM) injected into the cell with 90 μM MAP2c or 220 μM fragment 300-467; 27 °C; 50 mM MOPS, 100 mM NaCl, 4 mM β-mercaptoethanol; one set of sites; apparent KD
[2] = target: T1, MAP2c fully phosphorylated by PKA (rat, UniProt P15146-3 1-467, almost complete phosphorylation at Ser184, Thr220, and Ser435); assay: as above
T1 construct: microtubule-associated protein 2c (MAP2c), rat, 467 residues, UniProt A6KFC7; 15N,13C-labelled for the HNCO experiments; also called MP‐MAP2c; source: MAP2c expressed and purified as described earlier, incubated overnight with PKA at 27 °C, purified on HiTrap SP
T1 sequence (looked up): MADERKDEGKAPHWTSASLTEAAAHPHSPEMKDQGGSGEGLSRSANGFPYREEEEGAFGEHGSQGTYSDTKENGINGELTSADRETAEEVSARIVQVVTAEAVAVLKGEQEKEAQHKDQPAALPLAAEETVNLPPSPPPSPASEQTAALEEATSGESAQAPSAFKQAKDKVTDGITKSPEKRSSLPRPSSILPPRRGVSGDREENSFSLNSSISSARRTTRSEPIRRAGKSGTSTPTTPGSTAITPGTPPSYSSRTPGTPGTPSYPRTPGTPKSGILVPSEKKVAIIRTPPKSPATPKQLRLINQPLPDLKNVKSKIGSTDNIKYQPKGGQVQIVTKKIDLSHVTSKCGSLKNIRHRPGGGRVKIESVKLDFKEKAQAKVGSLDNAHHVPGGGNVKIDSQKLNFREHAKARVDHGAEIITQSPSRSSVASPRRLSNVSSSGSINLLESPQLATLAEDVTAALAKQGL

[3] = target: unphosphorylated MAP2c (microtubule associated protein 2c) (rat) (UniProt P15146); assay: cross-linking; DSBU (200 μM) cross-linking, SDS/PAGE and LC-MS/MS; 20 μM UP-/MP-MAP2c with 80 μM d14-3-3ζ or m14-3-3ζ, or 80 μM d14-3-3ζ with 100 or 400 μM UP-(333-362); PBS, 1 mM TCEP, 37 °C
[4] = target: MAP2c phosphorylated selectively by PKA at Ser435 (rat) (UniProt P15146); assay: NMR titration; 31P 1D NMR; 60 μM SP-MAP2c or MP-MAP2c with 12.5-300 μM d14-3-3ζ or 12.5-200 μM m14-3-3ζ; chemical shift changes fitted; apparent KD
[5] = target: T1, MAP2c fully phosphorylated by PKA; assay: cross-linking; DSBU (200 μM) cross-linking, SDS/PAGE and LC-MS/MS; 20 μM UP-/MP-MAP2c with 80 μM d14-3-3ζ or m14-3-3ζ, or 80 μM d14-3-3ζ with 100 or 400 μM UP-(333-362); PBS, 1 mM TCEP, 37 °C
[6] = target: T2, monomeric 14‐3‐3ζ‐L12E/M78K/C25A/C189A, P63104; assay: ITC; free m14-3-3ζ titrated into ITC buffer; heat of dissociation; dimer to monomers; settings: remark: other sources report otherwise
T2 chain: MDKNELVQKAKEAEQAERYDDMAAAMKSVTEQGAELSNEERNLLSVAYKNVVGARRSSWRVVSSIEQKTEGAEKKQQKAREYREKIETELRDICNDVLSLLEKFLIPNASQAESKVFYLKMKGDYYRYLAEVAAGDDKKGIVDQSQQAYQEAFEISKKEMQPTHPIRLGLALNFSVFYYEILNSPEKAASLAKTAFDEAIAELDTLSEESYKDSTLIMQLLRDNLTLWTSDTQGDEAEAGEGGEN

[7] = target: T2, monomeric 14‐3‐3ζ‐L12E/M78K/C25A/C189A, …; assay: native gel or EMSA; native PAGE; 100 μM d14-3-3ζ or m14-3-3ζ with 0-400 μM MP-MAP2c, 15 min at room temperature; 10% gel, 25 mM Tris, 192 mM glycine, 4 °C; settings: remark: other sources report otherwise
[8] = target: T3, MAP2c phosphorylated selectively by PKA at Ser435 (rat, UniProt P15146-3 1-467, phosphoserine at 435); assay: ITC; 14-3-3ζ (d: 2.9-3 mM; m: 1.5 mM) injected into the cell with 90 μM MAP2c or 220 μM fragment 300-467; 27 °C; 50 mM MOPS, 100 mM NaCl, 4 mM β-mercaptoethanol; one set of sites; apparent KD; settings: both partners purified
T3 construct: microtubule-associated protein 2c (MAP2c), rat, 467 residues, UniProt A6KFC7; 15N,13C-labelled for the HNCO experiments; also called SP‐MAP2c; source: MAP2c expressed and purified as described earlier, incubated with PKA for 1 h at 27 °C, purified on HiTrap SP
T3 sequence (looked up): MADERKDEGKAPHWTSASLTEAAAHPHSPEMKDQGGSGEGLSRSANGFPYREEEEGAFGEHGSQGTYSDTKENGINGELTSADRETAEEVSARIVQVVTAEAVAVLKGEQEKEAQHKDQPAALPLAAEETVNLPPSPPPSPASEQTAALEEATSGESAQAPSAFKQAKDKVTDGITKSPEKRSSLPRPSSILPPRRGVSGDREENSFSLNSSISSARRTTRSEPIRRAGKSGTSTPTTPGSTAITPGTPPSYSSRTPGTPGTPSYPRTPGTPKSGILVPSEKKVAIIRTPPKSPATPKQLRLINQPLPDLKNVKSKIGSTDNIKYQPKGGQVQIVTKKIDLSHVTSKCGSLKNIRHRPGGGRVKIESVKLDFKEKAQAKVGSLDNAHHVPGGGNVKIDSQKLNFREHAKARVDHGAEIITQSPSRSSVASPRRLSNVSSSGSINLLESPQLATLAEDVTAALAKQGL

[9] = target: T4, unphosphorylated MAP2c (microtubule associated protein 2c) (rat, UniProt P15146-3 1-467); assay: as above; settings: both partners purified
T4 construct: microtubule-associated protein 2c (MAP2c), rat, 467 residues, UniProt A6KFC7; 15N,13C-labelled (M9 medium) for the HNCO experiments; also called UP‐MAP2c
T4 sequence (looked up): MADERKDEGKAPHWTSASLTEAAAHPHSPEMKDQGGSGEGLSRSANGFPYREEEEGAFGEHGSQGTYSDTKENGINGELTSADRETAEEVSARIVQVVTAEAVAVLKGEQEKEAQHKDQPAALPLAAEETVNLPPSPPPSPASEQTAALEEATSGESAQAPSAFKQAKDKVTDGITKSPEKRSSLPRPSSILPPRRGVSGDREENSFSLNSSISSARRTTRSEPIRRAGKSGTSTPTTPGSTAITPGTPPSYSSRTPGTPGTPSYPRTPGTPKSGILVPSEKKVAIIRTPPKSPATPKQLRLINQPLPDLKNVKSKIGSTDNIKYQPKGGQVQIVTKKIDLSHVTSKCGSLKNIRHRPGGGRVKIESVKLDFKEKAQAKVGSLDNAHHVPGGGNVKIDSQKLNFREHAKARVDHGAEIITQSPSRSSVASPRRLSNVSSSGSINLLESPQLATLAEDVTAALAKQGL

[10] = target: T3, MAP2c phosphorylated selectively by PKA …; assay: NMR titration; 31P 1D NMR; 60 μM SP-MAP2c or MP-MAP2c with 12.5-300 μM d14-3-3ζ or 12.5-200 μM m14-3-3ζ; chemical shift changes fitted; apparent KD; settings: both partners purified
[11] = target: the molecule itself; assay: cross-linking; DSBU (200 μM) cross-linking, SDS/PAGE and LC-MS/MS; 20 μM UP-/MP-MAP2c with 80 μM d14-3-3ζ or m14-3-3ζ, or 80 μM d14-3-3ζ with 100 or 400 μM UP-(333-362); PBS, 1 mM TCEP, 37 °C
[12] = target: T4, unphosphorylated MAP2c (microtubule …); assay: as above; settings: both partners purified
[13] = target: B2; assay: ITC; 14-3-3ζ (d: 2.9-3 mM; m: 1.5 mM) injected into the cell with 90 μM MAP2c or 220 μM fragment 300-467; 27 °C; 50 mM MOPS, 100 mM NaCl, 4 mM β-mercaptoethanol; one set of sites; apparent KD; settings: both partners purified
[14] = target: B2; assay: ITC; 3 mM d14-3-3ζ injected into 160 μM SP-(432-439) or 150 μM UP-(333-362); 27 °C; 50 mM MOPS, 100 mM NaCl, 4 mM β-mercaptoethanol; n set to one in the fit; settings: both partners purified
[15] = target: B2; assay: NMR titration; 3D HNCO peak broadening; 350 μM 15N,13C-UP-(300-399) with 350 μM d14-3-3ζ; 27 °C; NMR buffer; settings: both partners purified

monomeric 14‐3‐3ζ‐L12E/M78K/C25A/C189A (from UniProt P63104 1-245) (natural protein)
Kd [1]: 102 µM | dH [1]: 2.49 kcal/mol | stoichiometry N [1]: 1.51 | Kd [2]: 17 µM | dH [2]: 0.765 kcal/mol | stoichiometry N [2]: 1.31 | stoichiometry N [3]: 2 | Kd [4]: 133 µM | stoichiometry N [5]: 2

B1: monomeric 14‐3‐3ζ‐L12E/M78K/C25A/C189A, P63104 1-245 (natural protein)
chain: MDKNELVQKAKEAEQAERYDDMAAAMKSVTEQGAELSNEERNLLSVAYKNVVGARRSSWRVVSSIEQKTEGAEKKQQKAREYREKIETELRDICNDVLSLLEKFLIPNASQAESKVFYLKMKGDYYRYLAEVAAGDDKKGIVDQSQQAYQEAFEISKKEMQPTHPIRLGLALNFSVFYYEILNSPEKAASLAKTAFDEAIAELDTLSEESYKDSTLIMQLLRDNLTLWTSDTQGDEAEAGEGGEN
Kd [6]: 600 µM | percent present as a dimer at 100 μM [7]: 20%

B2
Kd ([2]; both partners purified): 21 ± 3 µM | dH ([2]; both partners purified): 1.34 ± 0.0478 kcal/mol | stoichiometry N ([2]; both partners purified): 1.99 ± 0.04 | Kd [8]: 74 ± 21 µM | dH [8]: 2.08 ± 0.239 kcal/mol | stoichiometry N [8]: 2.68 ± 0.12 | Kd [9]: 58 ± 6 µM | dH [9]: 2.72 ± 0.12 kcal/mol | stoichiometry N [9]: 1.93 ± 0.03 | Kd [10]: 7.3 µM and < 15 µM | stoichiometry N [10]: 2.73 ± 0.2 | binding result [11]: binds | stoichiometry N ([5]; both partners purified): 2 | stoichiometry N [12]: 2

B3: unphosphorylated MAP2c fragment 300–467 (MTBD and CTD) (domain or fragment, rat, UniProt P15146-3 300-467, looked up)
chain: LRLINQPLPDLKNVKSKIGSTDNIKYQPKGGQVQIVTKKIDLSHVTSKCGSLKNIRHRPGGGRVKIESVKLDFKEKAQAKVGSLDNAHHVPGGGNVKIDSQKLNFREHAKARVDHGAEIITQSPSRSSVASPRRLSNVSSSGSINLLESPQLATLAEDVTAALAKQGL
notes: MAP2c, rat, UniProt A6KFC7, residues 300-467, covering MTBD and CTD; also called UP‐(300–467); source: cloned into pET28a (NcoI, BamHI); expressed and purified by the same protocol as MAP2c
Kd [13]: 56 ± 8 µM

B4: MAP2c fragment 300–467 phosphorylated by PKA on Ser435 (domain or fragment, rat, UniProt P15146-3 300-467, looked up)
chain: LRLINQPLPDLKNVKSKIGSTDNIKYQPKGGQVQIVTKKIDLSHVTSKCGSLKNIRHRPGGGRVKIESVKLDFKEKAQAKVGSLDNAHHVPGGGNVKIDSQKLNFREHAKARVDHGAEIITQSPSRSSVASPRRLSNVSSSGSINLLESPQLATLAEDVTAALAKQGL
modifications: phosphoserine at 435
notes: MAP2c, rat, UniProt A6KFC7, residues 300-467, covering MTBD and CTD; also called SP‐(300–467); source: cloned into pET28a; expressed and purified by the same protocol as MAP2c; incubated overnight with PKA at 27 °C
Kd [13]: 24 ± 6 µM

B5: phosphopeptide corresponding to residues 432–439 of MAP2c (peptide)
peptide: RRL[pS]NVSS
notes: source: synthetic peptide, ordered from Clonestar
Kd [14]: 3200 ± 400 µM

B6: peptide corresponding to residues 333–362 of MAP2c (peptide)
peptide: QIVTKKIDLSHVTSKCGSLKNIRHRPGGGR
notes: as for B5
Kd [14]: 1800 ± 100 µM

B7: MAP2c microtubule binding domain fragment, residues 300–399 (domain or fragment, rat, UniProt P15146-3 300-399, looked up)
chain: LRLINQPLPDLKNVKSKIGSTDNIKYQPKGGQVQIVTKKIDLSHVTSKCGSLKNIRHRPGGGRVKIESVKLDFKEKAQAKVGSLDNAHHVPGGGNVKIDS
notes: MAP2c, rat, UniProt A6KFC7, residues 300-399, containing the MTBD; also called UP‐(300–399); MTBD; source: cloned into pET28a (NcoI, BamHI); expressed in M9 medium (15N,13C) and purified by the same protocol as MAP2c
binding result [15]: binds
